Publication PMC12594171, “DKK3-LRP1 complex and a chemical inhibitor regulate Aβ clearance in models of Alzheimer’s disease” (Science Advances, 2025)

Assays:
DKK1-AP = molecular target: T1, DKK1-AP (UniProt O94907 32-266); experiment: SPR; Biacore T200; purified mLRPIV-6×His (15 μM) amine-coupled to a CM5 chip; DKK1 or DKK3 at 6.25 to 200 nM; settings: both partners purified
T1 construct: DKK1 cDNA cloned into the pAPtag-5 vector (GenHunter, QV5); also called DKK1 tagged with alkaline phosphatase (AP) and 6 × His; source: HEK293, transfected, conditioned medium; purified with Ni-NTA Agarose beads; not shown: alkaline phosphatase (AP), C-terminal, kept
T1 sequence (looked up): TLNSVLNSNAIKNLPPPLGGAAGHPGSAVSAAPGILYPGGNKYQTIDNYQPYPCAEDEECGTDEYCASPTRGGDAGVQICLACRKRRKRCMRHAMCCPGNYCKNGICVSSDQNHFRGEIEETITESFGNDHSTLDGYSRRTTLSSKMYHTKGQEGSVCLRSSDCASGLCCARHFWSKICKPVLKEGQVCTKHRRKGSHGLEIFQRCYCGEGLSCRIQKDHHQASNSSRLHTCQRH

DKK3-AP = molecular target: T2, DKK3-AP (UniProt Q9UBP4 22-350); experiment: as above; settings: both partners purified
T2 construct: DKK3 cDNA cloned into the pAPtag-5 vector (GenHunter, QV5); also called DKK3 tagged with alkaline phosphatase (AP) and 6 × His; source: HEK293, transfected, conditioned medium; purified with Ni-NTA Agarose beads; not shown: alkaline phosphatase (AP), C-terminal, kept
T2 sequence (Q9UBP4 22-350): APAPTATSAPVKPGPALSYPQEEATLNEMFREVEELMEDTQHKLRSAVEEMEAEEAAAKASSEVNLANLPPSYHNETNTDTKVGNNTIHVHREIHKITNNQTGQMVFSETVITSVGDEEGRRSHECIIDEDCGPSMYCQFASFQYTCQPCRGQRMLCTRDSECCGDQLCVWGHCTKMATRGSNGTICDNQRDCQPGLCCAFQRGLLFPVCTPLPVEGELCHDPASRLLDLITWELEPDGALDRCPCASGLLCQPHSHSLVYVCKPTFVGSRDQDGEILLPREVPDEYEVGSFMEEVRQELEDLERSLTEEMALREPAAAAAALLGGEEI

Kd (DKK1-AP): 82.3 nM
Kd (DKK3-AP): 35.5 nM
B1: mLRPIV-6 × His, prokaryotically expressed (domain or fragment)
chain: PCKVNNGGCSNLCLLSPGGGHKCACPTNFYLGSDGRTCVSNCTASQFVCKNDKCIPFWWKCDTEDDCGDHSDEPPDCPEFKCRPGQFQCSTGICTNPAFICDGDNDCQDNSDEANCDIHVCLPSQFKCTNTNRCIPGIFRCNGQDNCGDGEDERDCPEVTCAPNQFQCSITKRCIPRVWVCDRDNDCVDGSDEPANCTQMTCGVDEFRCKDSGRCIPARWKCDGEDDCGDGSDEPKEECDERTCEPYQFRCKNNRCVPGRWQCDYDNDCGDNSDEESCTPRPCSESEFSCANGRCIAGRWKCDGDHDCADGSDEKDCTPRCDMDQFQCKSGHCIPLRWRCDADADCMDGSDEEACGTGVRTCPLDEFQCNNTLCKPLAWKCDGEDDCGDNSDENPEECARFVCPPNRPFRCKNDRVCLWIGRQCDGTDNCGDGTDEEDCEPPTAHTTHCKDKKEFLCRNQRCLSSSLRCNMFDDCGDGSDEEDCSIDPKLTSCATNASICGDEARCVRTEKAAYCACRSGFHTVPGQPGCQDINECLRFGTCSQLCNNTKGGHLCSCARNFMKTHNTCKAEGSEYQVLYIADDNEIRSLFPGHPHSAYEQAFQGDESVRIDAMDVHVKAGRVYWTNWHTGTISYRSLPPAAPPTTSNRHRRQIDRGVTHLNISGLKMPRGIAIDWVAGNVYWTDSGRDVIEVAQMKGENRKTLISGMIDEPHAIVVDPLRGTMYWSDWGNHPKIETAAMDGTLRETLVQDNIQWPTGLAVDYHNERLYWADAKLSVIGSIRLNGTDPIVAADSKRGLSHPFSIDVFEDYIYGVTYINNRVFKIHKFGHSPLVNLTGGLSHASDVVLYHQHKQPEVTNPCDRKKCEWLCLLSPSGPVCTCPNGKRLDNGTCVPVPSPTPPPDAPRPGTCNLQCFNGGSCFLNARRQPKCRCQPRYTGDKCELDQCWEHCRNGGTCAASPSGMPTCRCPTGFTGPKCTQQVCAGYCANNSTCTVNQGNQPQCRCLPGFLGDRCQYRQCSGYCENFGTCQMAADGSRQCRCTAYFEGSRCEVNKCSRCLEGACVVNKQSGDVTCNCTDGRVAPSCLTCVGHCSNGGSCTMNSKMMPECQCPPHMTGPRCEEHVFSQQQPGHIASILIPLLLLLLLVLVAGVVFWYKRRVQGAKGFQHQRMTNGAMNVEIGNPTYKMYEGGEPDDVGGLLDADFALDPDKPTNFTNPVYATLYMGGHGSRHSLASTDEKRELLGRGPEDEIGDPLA
